Results from patent publication US10487121B2, “D-peptide inhibitors of HIV entry and methods of use” (priority 2016, dated 2019).
Values after ≈ are worked out from the molar mass of the structure shown. Numbered stars: 1 amine (or outer) side, 2 acyl side, 3 side chain; on linkers, the order of the positions; unused ones are H or OH. Bridge positions count the residues as written; N and C are the ends. Square brackets hold non-standard residues; d marks the D form. I, II: the chains in the order shown. X1 = CC(C)CCC[C@@H](C)[C@H]1CC[C@H]2[C@@H]3CC=C4C[C@@H](OC(=O)NCCOCCOCCOCCOCCC(=O)NCCOCCOCCOCCOCCOCCOCCOCCOCCOCCOCCOCCOCCOCCOCCOCCOCCOCCOCCOCCOCCOCCOCCOCCOCCOCCOCCOCCOCCC(=O)NC(CCC(=O)[*:1])(CCC(=O)[*:2])CCC(=O)[*:3])CC[C@]4(C)[C@H]3CC[C@]12C; PEG4 = NCCOCCOCCOCCOCCC(=O)O

Columns and labels:
[1] = Rodent pharmacokinetics of PIE12-trimer and conjugates (Table 3 protocol); assay type: in vivo, Sprague Dawley rats; settings: rats
Method: At each timepoint, plasma was obtained using lithium heparin.
Samples were spiked with an internal standard then precipitated with two volumes of 98% acetonitrile/2% Formic acid. Supernatants were analyzed by LC/MS/MS using an Agilent HPLC system (Waters X-Bridge BEH C18 column) paired to an AB Sciex API 3000 triple-quad mass spectrometer using MRM methods. Lipid conjugates required lower source temperatures (300° C. vs 500° C.) for improved reproducibility.

[2] = Rat pharmacokinetics of cholesterol conjugates, Calvert study (Table 4 protocol); settings: for bioavailability: male
Method: For PIE12 monomer conjugates, in-life studies were performed by Invitek (Hayward, Calif.). Trimeric conjugate in-life studies were performed at Navigen (Salt Lake City, Utah). […] At each timepoint, plasma was obtained using lithium heparin. […] Plasma samples were stored at −80° C. and shipped prior to bioanalysis.
The column temperature was maintained at 70° C.
Fifty microliter aliquots of plasma for each time point was precipitated with 2.5 volumes of ice-cold acetonitrile containing 2% trifluoroacetic acid (v/v) and 370 nM CPT12 as internal standard. […] The column temperature was maintained at 70° C.
CPT31 in Rat Plasma-Calvert Study
Fifty microliter aliquots of plasma for each time point was precipitated with 5 volumes of ice-cold acetonitrile containing 1% formic acid (v/v). No internal standard was used. […] The column temperature was maintained at 40° C.
All of the PK data presented in Table 3 was generated using the same animal protocols and similar bioanalytical methods. Different animal protocols and improved bioanalytical methods were used to generate the data in Table 4 (all PK fitiing was performed using WinNonlin software).

[3] = Solubility in standard aqueous buffers
[4] = tested on: JRFL (R5) luciferase reporter pseudovirions on HOS-CD4-CCR5; experiment: Pseudovirion entry assay, JRFL; assay type: cell-based, HIV-1
Method: Pseudovirion assays were performed as previously described (Welch et al., 2010, J. Virol. 84:11235-44; Welch et al., 2007, Proc. Natl. Acad. Sci. 104:16827-16833, each of which is incorporated herein by reference in its entirety). Briefly, a six-point dilution series of each inhibitor was generated in quadruplicate on HOS-CD4-CXCR4 (for HXB2) or HOS-CD4-CCR5 (for JRFL) monolayers in 96 well plates, after which HXB2 (X4) or JRFL (R5) luciferase reporter pseudovirions were added. After 2 days, cells were lysed using GloLysis buffer (Promega) and BrightGlo luciferase substrate (Promega) was added. Luminescence was read on a PolarStar Optima (BMG) plate reader and normalized to uninhibited controls. Inhibition curves were plotted and fit to a standard IC50 equation for normalized data [(1−c/(IC50+c)], weighting each point by its standard error using KaleidaGraph (Synergy Software). Reported IC50 values are the average of at least two independent quadruplicate assays.

[5] = Non-human primate pharmacokinetics; assay type: in vivo, cynomolgus monkeys
Method: Non-Human Primate Pharmacokinetics
In-life was performed by Calvert Laboratories (Scott Township, Pa.). […] Upon IV dosing, 1 ml blood samples were collected at 0.083, 0.167, 0.25, 0.5, 1, 2, 4, 8, 16 and 24 h post-dose into chilled tubes containing K2EDTA, mixed by inversion, and centrifuged (3000 rpm, 4° C., 15 min) to isolate plasma. Plasma was stored at −80° C. until bioanalysis.
Following a 13-day washout period, study animals were administered a single subcutaneous dose of CPT31 (10 mg/ml in 50 mM HEPES, pH 7.4) into the loose skin of the back between the shoulder blades at a dose of 3 mg/kg. Plasma samples were collected at pre-dose, 0.25, 0.5, 1, 2, 4, 8, 16, 24 and 48 hours post-dose. Collected blood samples were treated as described above. The pre-dose sample confirmed drug levels were below the lower limit of quantification (5.00 nM).
CPT31 in Monkey Plasma-Calvert Study
The internal standard, CPT31-IS was synthesized with an additional glycine on each PIE12-2 monomer (three in total), increasing the molecular mass by 171.1 Da. Plasma samples (200 μl) were spiked with CPT31-IS to a concentration of either 60 or 150 nM, then precipitated in 2% NH4OH in acetonitrile (500 μl). Following centrifugation, the supernatant was applied to a strong anion exchange solid-phase extraction 96-well plate (SOLAμ SAX, 2 mg/ml 96-well plate). The anion exchange plate was first conditioned with 400 μl of 2% NH4OH in methanol, followed by 400 μl of 2% NH4OH in water. The precipitated supernatant (500 μl) was then loaded into each well, followed by washing with 500 μl of 2% NH4OH in water, then 500 μl of methanol. Sample was eluted using two 50 μl aliquots of 2% formic acid in methanol.
LC-MS analysis was conducted using an Agilent Infinity 1290 HPLC system paired to an Agilent 6450A Q-TOF mass spectrometer equipped with a Dual Jet Spray ESI source. […] Samples were analyzed against a standard curve of CPT31 from 5.00-2,000 nM.

[6] = biological target: HSA (Homo sapiens, UniProt P02768); settings: cited from earlier work
Chain of HSA (P02768 25-609): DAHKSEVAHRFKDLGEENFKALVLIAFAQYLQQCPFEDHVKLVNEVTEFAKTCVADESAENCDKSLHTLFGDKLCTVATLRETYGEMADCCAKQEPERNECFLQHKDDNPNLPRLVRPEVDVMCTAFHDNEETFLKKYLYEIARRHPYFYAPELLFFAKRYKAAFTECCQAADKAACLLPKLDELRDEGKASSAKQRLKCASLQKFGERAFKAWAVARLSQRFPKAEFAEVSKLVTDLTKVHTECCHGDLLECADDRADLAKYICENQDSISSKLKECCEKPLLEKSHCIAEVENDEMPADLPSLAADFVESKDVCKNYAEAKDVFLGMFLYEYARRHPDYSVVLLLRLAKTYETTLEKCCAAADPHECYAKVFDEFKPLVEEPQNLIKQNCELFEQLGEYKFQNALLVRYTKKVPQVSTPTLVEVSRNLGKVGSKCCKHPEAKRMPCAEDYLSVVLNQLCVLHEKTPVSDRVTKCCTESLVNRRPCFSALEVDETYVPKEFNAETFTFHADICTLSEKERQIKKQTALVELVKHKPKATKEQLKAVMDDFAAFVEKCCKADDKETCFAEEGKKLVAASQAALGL

[7] = humans; cited from earlier work
[8] = rat, in vivo, IV, 1.0 mg/kg, plasma, median
[9] = rat, in vivo, SC, 1.0 mg/kg, plasma, median
[10] = rats, SC, 1.0 mg/kg, plasma, median, updated protocols
[11] = rats, IV, 1.0 mg/kg, plasma, median, updated protocols

For `CC(=O)N[C@H](Cc1c[nH]cn1)C(=O)N1CCC[C@@H]1C(=O)N[C@@H]1CSSC[C@H](C(=O)N[C@H](CCC(=O)O)C(=O)N[C@H](CC(C)C)C(=O)NCC(=O)N[C@H](CCCCNC(=O)CCOCCOCCOCCOCCNC(=O)CCOCC(COCCC(=O)NCCOCCOCCOCCOCCC(=O)NCCCC[C@@H](NC(=O)CNC(=O)[C@@H](CC(C)C)NC(=O)[C@@H](CCC(=O)O)NC(=O)[C@H]2CSSC[C@@H](NC(=O)[C@H]3CCCN3C(=O)[C@@H](Cc3c[nH]cn3)NC(C)=O)C(=O)N[C@H](CC(=O)O)C(=O)N[C@H](Cc3ccc(O)cc3)C(=O)N3CCC[C@@H]3C(=O)N[C@H](CCC(=O)O)C(=O)N[C@H](Cc3c[nH]c4ccccc34)C(=O)N[C@H](CCC(N)=O)C(=O)N[C@H](Cc3c[nH]c4ccccc34)C(=O)N[C@H](CC(C)C)C(=O)N2)C(N)=O)(COCCC(=O)NCCOCCOCCOCCOCCC(=O)NCCCC[C@@H](NC(=O)CNC(=O)[C@@H](CC(C)C)NC(=O)[C@@H](CCC(=O)O)NC(=O)[C@H]2CSSC[C@@H](NC(=O)[C@H]3CCCN3C(=O)[C@@H](Cc3c[nH]cn3)NC(C)=O)C(=O)N[C@H](CC(=O)O)C(=O)N[C@H](Cc3ccc(O)cc3)C(=O)N3CCC[C@@H]3C(=O)N[C@H](CCC(=O)O)C(=O)N[C@H](Cc3c[nH]c4ccccc34)C(=O)N[C@H](CCC(N)=O)C(=O)N[C@H](Cc3c[nH]c4ccccc34)C(=O)N[C@H](CC(C)C)C(=O)N2)C(N)=O)NC(=O)CCOCCOCCOCCOCCOCCOCCOCCOCCOCCOCCOCCOCCOCCOCCOCCOCCOCCOCCOCCOCCOCCOCCOCCOCCNC(=O)CCN2C(=O)CC(S[C@H]3CC[C@@]4(C)C(=CC[C@H]5[C@@H]6CC[C@H]([C@H](C)CCCC(C)C)[C@@]6(C)CC[C@@H]54)C3)C2=O)C(N)=O)NC(=O)[C@@H](CC(C)C)NC(=O)[C@@H](Cc2c[nH]c3ccccc23)NC(=O)[C@@H](CCC(N)=O)NC(=O)[C@@H](Cc2c[nH]c3ccccc23)NC(=O)[C@@H](CCC(=O)O)NC(=O)[C@H]2CCCN2C(=O)[C@@H](Cc2ccc(O)cc2)NC(=O)[C@@H](CC(=O)O)NC1=O` (some centres unmarked) [CPT24], the bioavailability ([1]; Sprague Dawley, rat, SC, 1.0 mg/kg, plasma, median) was 73%, the AUC(0-inf) [1, 8] was 2.39 µM·h and the C0 [1, 8] was 1110 nM. The clearance ([1]; rat, in vivo, IV, 1.0 mg/kg, plasma, median, read-out: Cl (obs) (converted)) was 0.783 mL/min/kg, the half-life ([1]; rat, in vivo, IV, 1.0 mg/kg, plasma, median, read-out: T1/2 (converted)) was 106 min and the Vd ([1]; rat, in vivo, IV, 1.0 mg/kg, plasma, median, read-out: Vz (obs)) was 0.13 L/kg. The half-life ([1]; rat, in vivo, IV, read-out: IV half-life (converted)) was 108 min, the AUC(0-inf) [1, 9] was 1.75 µM·h and the Cmax [1, 9] was 304 nM. For the same compound, the Tmax [1, 9] was 4 h, the half-life ([1]; rat, in vivo, SC, 1.0 mg/kg, plasma, median, read-out: T1/2 (converted)) was 163 min and the half-life ([1]; rat, in vivo, SC, read-out: SC half-life (converted)) was 162 min. The “increase of IV half-life vs PIE12-trimer” value ([1]; IV) was greater than 3 fold, the “reduction of clearance vs PIE12-trimer” value ([1]; IV) was roughly 18 fold and the “extension of SC (apparent) half-life vs PIE12-trimer” value ([1]; SC, terminal phase elimination) was greater than 3 fold. It also gave a bioavailability ([2]; rat, in vivo, sc, 1 mg/kg) of 51.4%, an AUC(0-inf) ([2]; rat, in vivo, iv, 1 mg/kg) of 4.66 µM·h and a C0 ([2]; rat, in vivo, iv, 1 mg/kg) of 4530 nM. It also gave a Vd ([2]; rat, in vivo, iv, 1 mg/kg) of 0.057 L/kg, a half-life ([2]; rat, in vivo, iv, 1 mg/kg) of 97.2 min and a half-life ([2]; rat, in vivo, sc) of 228 min. It also gave an AUC(0-inf) ([2]; rat, in vivo, sc, 1 mg/kg) of 2.39 µM·h, a Cmax ([2]; rat, in vivo, sc, 1 mg/kg) of 395 nM and a Tmax ([2]; rat, in vivo, sc, 1 mg/kg) of 2 h. It also gave a half-life ([2]; rat, in vivo, sc, 1 mg/kg) of 233 min, an F [2, 10] of 51% and a solubility [3] of roughly 40 mg/mL (≈ 4.53 mM).

For “CPT24-5kD: includes 5 kDa of linear polydisperse PEG between PIE12-trimer and thiocholesterol”, the “antiviral potency, in words” value [4] was “comparable to CPT24”, the “prolonged half-life compared to CPT24” value ([2]; rats, IV) was 3.5 fold and the “AUC(0-inf)” value [2, 11] was 4.578 µM·h. For the same compound, the C0 [2, 11] was 1100 nM, the “Cl (obs)” value [2, 11] was 14.6 mL/h/kg and the T1/2 [2, 11] was 5.62 h. The “Vz (obs)” value [2, 11] was 118 mL/kg, the “prolonged half-life compared to CPT24” value ([2]; rats, SC) was 1.8 fold and the “AUC(0-inf)” value [2, 10] was 1.557 µM·h. It also gave a Cmax [2, 10] of 89 nM and a T1/2 [2, 10] of 7.21 h.

With “I: Ac-[dH][dP][dC][dD][dY][dP][dE][dW][dQ][dW][dL][dC][dE][dL]G[PEG4][dK]-NH2 / II: Ac-[dH][dP][dC][dD][dY][dP][dE][dW][dQ][dW][dL][dC][dE][dL]G[PEG4][dK]-NH2 / III: Ac-[dH][dP][dC][dD][dY][dP][dE][dW][dQ][dW][dL][dC][dE][dL]G[PEG4][dK]-NH2 (disulfide I:3-I:12, II:3-II:12, III:3-III:12; linker I:17-II:17-III:17 via X1) [CPT31]” the bioavailability ([2]; rat, in vivo, sc, 1 mg/kg) was 55%, the half-life ([2]; rat, in vivo, iv, 1 mg/kg) was 195 min and the half-life ([2]; rat, in vivo, sc) was 324 min. For the same compound, the half-life ([5]; cynomolgus monkey, in vivo, non-human primates, SC, read-out: subcutaneous half-life (converted)) was 1080 min, the bioavailability ([5]; cynomolgus monkey, male cynomolgus monkeys, SC, 3.0 mg/kg, plasma, median) was 80.4% and the adverse events ([5]; cynomolgus monkeys, IV 1 mg/kg then SC 3 mg/kg) was “no adverse events were observed”. It also gave a solubility [3] of roughly 40 mg/mL.

For enfuvirtide, the “HSA binding, in words” value [6] is listed as “highly HSA bound” and the “volume of distribution, in words” value [7] is listed as “reduced volume of distribution”.
